# Ends that are not written are not given here.
# T1: ApoC3 peptide D66W (human, cyclic (thioether))
# T1 peptide: DKFSEFWWLDPEV
# T2: ApoC3 peptide S62A (human, not fully specified; cyclic (thioether))
# T2 peptide: DKFAEFWDLDPEV
# T3: ApoC3 peptide V71E (human, thioether (positions not given here); also: cyclic (thioether), ring places not given here)
# T3 peptide: DKFSEFWDLDPEE
# T4: ApoC3 peptide D59G (human, thioether (positions not given here); not fully specified (C-terminus, bridges))
# T4 peptide: GKFSEFWDLDPEV
# T5: ApoC3 peptide S62K (human, thioether (positions not given here); also: cyclic (thioether), ring places not given here)
# T5 peptide: DKFKEFWDLDPEV
# T6: ApoC3 peptide D66A (human, not fully specified; cyclic (thioether))
# T6 peptide: DKFSEFWALDPEV
# T7: ApoC3 peptide V71H (human, thioether (positions not given here); also: cyclic (thioether), ring places not given here)
# T7 peptide: DKFSEFWDLDPEH
# T8: ApoC3 peptide S62R (human, thioether (positions not given here); also: cyclic (thioether), ring places not given here)
# T8 peptide: DKFREFWDLDPEV
# T9: ApoC3 peptide F61D (human, cyclic (thioether))
# T9 peptide: DKDSEFWDLDPEV
# T10: ApoC3 peptide F64P (human, thioether (positions not given here); not fully specified (bridges); also: cyclic (thioether), positions not given here)
# T10 peptide: DKFSEPWDLDPEV
# T11: ApoC3 peptide S62Y (human, thioether (positions not given here); also: cyclic (thioether), ring places not given here)
# T11 peptide: DKFYEFWDLDPEV
# T12: ApoC3 peptide P69L (human, not fully specified; cyclic (thioether))
# T12 peptide: DKFSEFWDLDLEV
# T13: ApoC3 peptide D59Q (human, thioether (positions not given here); not fully specified (C-terminus, bridges); also: cyclised via thioether between a C-terminal Cys and a modified N-terminus, the Cys and the N-terminal …)
# T13 peptide: QKFSEFWDLDPEV
# T14: ApoC3 peptide F64I (human, thioether (positions not given here); not fully specified (bridges); also: cyclic (thioether), positions not given here)
# T14 peptide: DKFSEIWDLDPEV
# T15: ApoC3 peptide V71S (human, not fully specified; cyclic (thioether))
# T15 peptide: DKFSEFWDLDPES
# T16: ApoC3 peptide F64G (human, thioether (positions not given here); not fully specified (bridges); also: cyclic (thioether), positions not given here)
# T16 peptide: DKFSEGWDLDPEV
# T17: ApoC3 peptide P69Q (human, not fully specified; cyclic (thioether))
# T17 peptide: DKFSEFWDLDQEV
# T18: ApoC3 peptide F61W (human, cyclic (thioether))
# T18 peptide: DKWSEFWDLDPEV
# T19: ApoC3 peptide V71N (human, thioether (positions not given here); also: cyclic (thioether), ring places not given here)
# T19 peptide: DKFSEFWDLDPEN
# T20: ApoC3 peptide F64W (human, thioether (positions not given here); not fully specified (bridges); also: cyclic (thioether), positions not given here)
# T20 peptide: DKFSEWWDLDPEV
# T21: ApoC3 peptide E63V (human, cyclic (thioether))
# T21 peptide: DKFSVFWDLDPEV
# T22: ApoC3 peptide D66H (human, not fully specified; cyclic (thioether))
# T22 peptide: DKFSEFWHLDPEV
# T23: ApoC3 peptide D59T (human, thioether (positions not given here); not fully specified (C-terminus, bridges); also: cyclised via thioether between a C-terminal Cys and a modified N-terminus, the Cys and the N-terminal …)
# T23 peptide: TKFSEFWDLDPEV
# T24: ApoC3 peptide D59E (human, thioether (positions not given here); not fully specified (C-terminus, bridges))
# T24 peptide: EKFSEFWDLDPEV
# T25: ApoC3 peptide F61C (human, cyclic (thioether))
# T25 peptide: DKCSEFWDLDPEV
# T26: ApoC3 peptide V71T (human, not fully specified; cyclic (thioether))
# T26 peptide: DKFSEFWDLDPET
# T27: ApoC3 peptide E63Y (human, cyclic (thioether))
# T27 peptide: DKFSYFWDLDPEV
# T28: ApoC3 peptide F64E (human, cyclic (thioether))
# T28 peptide: DKFSEEWDLDPEV
# T29: ApoC3 peptide P69S (human, not fully specified; cyclic (thioether))
# T29 peptide: DKFSEFWDLDSEV
# T30: ApoC3 peptide F61L (human, cyclic (thioether))
# T30 peptide: DKLSEFWDLDPEV
# Experiments:
# Assay in all cases: cyclic peptide substitution array
# [1] = biological target: T1, ApoC3 peptide D66W
# Text: (§1) S62 and D68 of mature huApoC3 were also highly conserved; substitution of S62 by A or V, and substitution of D68 by E or P, caused decrease of spot intensities by ˜60% or higher. […] Amino acid F64 was completely variable.
# (§2) Pre: staining of one of the ApoC3 peptide microarrays was done with the secondary antibody goat anti-human IgG (Fe) DyLight680 (1:5000) and control antibody mouse monoclonal anti-HA (12CA5) DyLight800 (1:2000) to investigate background interactions of the secondary antibody with the antigen-derived peptides that could interfere with the main assays. Subsequent incubation of other ApoC3 peptide microarrays with antibody samples was followed by staining with secondary and control antibodies as well as read-out at scanning intensities of 7/7 (red/green). The additional HA peptides framing the peptide arrays were stained as internal quality control to confirm the assay quality and the peptide microarray integrity.
# [2] = biological target: T2, ApoC3 peptide S62A
# Text: as §1, §2
# [3] = biological target: T3, ApoC3 peptide V71E
# Text: as §1, §2
# [4] = biological target: T4, ApoC3 peptide D59G
# Text: as §1, §2
# [5] = biological target: T5, ApoC3 peptide S62K
# Text: as §1, §2
# [6] = biological target: T6, ApoC3 peptide D66A
# Text: as §1, §2
# [7] = biological target: T7, ApoC3 peptide V71H
# Text: as §1, §2
# [8] = biological target: T8, ApoC3 peptide S62R
# Text: as §1, §2
# [9] = biological target: T9, ApoC3 peptide F61D
# Text: as §1, §2
# [10] = biological target: T10, ApoC3 peptide F64P
# Text: as §1, §2
# [11] = biological target: T11, ApoC3 peptide S62Y
# Text: as §1, §2
# [12] = biological target: T12, ApoC3 peptide P69L
# Text: as §1, §2
# [13] = biological target: T13, ApoC3 peptide D59Q
# Text: as §1, §2
# [14] = biological target: T14, ApoC3 peptide F64I
# Text: as §1, §2
# [15] = biological target: T15, ApoC3 peptide V71S
# Text: as §1, §2
# [16] = biological target: T16, ApoC3 peptide F64G
# Text: as §1, §2
# [17] = biological target: T17, ApoC3 peptide P69Q
# Text: as §1, §2
# [18] = biological target: T18, ApoC3 peptide F61W
# Text: as §1, §2
# [19] = biological target: T19, ApoC3 peptide V71N
# Text: as §1, §2
# [20] = biological target: T20, ApoC3 peptide F64W
# Text: as §1, §2
# [21] = biological target: T21, ApoC3 peptide E63V
# Text: as §1, §2
# [22] = biological target: T22, ApoC3 peptide D66H
# Text: as §1, §2
# [23] = biological target: T23, ApoC3 peptide D59T
# Text: as §1, §2
# [24] = biological target: T24, ApoC3 peptide D59E
# Text: as §1, §2
# [25] = biological target: T25, ApoC3 peptide F61C
# Text: as §1, §2
# [26] = biological target: T26, ApoC3 peptide V71T
# Text: as §1, §2
# [27] = biological target: T27, ApoC3 peptide E63Y
# Text: as §1, §2
# [28] = biological target: T28, ApoC3 peptide F64E
# Text: as §1, §2
# [29] = biological target: T29, ApoC3 peptide P69S
# Text: as §1, §2
# [30] = biological target: T30, ApoC3 peptide F61L
# Text: as §1, §2
binder,measurement,setting,value
"Llama antibody 5E5 (antibody, V domains shown, detected with goat anti-human IgG (Fc); also called mAb 5E5) VH: QLQLVESGGGLVQPGGSLRLSCAASGFTFGTYSMRWVRQVPRKALEWVSSISTDGGGTAYRDSVKGRFTISRDNAKNTLYLQMNNLKPEDTAIYYCVIAGYSDWGQGTQVTVSS VL: ATMLTQSPGSLSVVPGESASISCKTSQGLVHSDGKTYFYWFLQKPGQSPQQLIYQVSNRASGVPDRFTGSGSGTDFTLKISGVKAEDAGVYYCAQGTYYPHTFGSGTRLEIK",% of binding to wild-type peptide,[1],0%
same,% of binding to wild-type peptide,[2],29.6%
same,% of binding to wild-type peptide,[3],127%
same,% of binding to wild-type peptide,[4],60.3%
same,% of binding to wild-type peptide,[5],4.05%
same,% of binding to wild-type peptide,[6],0%
same,% of binding to wild-type peptide,[7],72.8%
same,% of binding to wild-type peptide,[8],1.45%
same,% of binding to wild-type peptide,[9],16%
same,% of binding to wild-type peptide,[10],528%
same,% of binding to wild-type peptide,[11],0%
same,% of binding to wild-type peptide,[12],16.7%
same,% of binding to wild-type peptide,[13],68.3%
same,% of binding to wild-type peptide,[14],69.3%
same,% of binding to wild-type peptide,[15],74.1%
same,% of binding to wild-type peptide,[16],212%
same,% of binding to wild-type peptide,[17],24.3%
same,% of binding to wild-type peptide,[18],15.7%
same,% of binding to wild-type peptide,[19],86.6%
same,% of binding to wild-type peptide,[20],88.5%
same,% of binding to wild-type peptide,[21],4.2%
same,% of binding to wild-type peptide,[22],0%
same,% of binding to wild-type peptide,[23],94.9%
same,% of binding to wild-type peptide,[24],128%
same,% of binding to wild-type peptide,[25],0.51%
same,% of binding to wild-type peptide,[26],96.7%
same,% of binding to wild-type peptide,[27],90.9%
same,% of binding to wild-type peptide,[28],283%
same,% of binding to wild-type peptide,[29],86.9%
same,% of binding to wild-type peptide,[30],63.4%

# From US20190241648A1 (STATEN BIOTECHNOLOGY B V, published 2019)
